Columns and labels:
[1] = molecular target: human oxytocin receptor (human) (UniProt P30559)
[2] = molecular target: human vasopressin V1a receptor (human) (UniProt P37288)
[3] = molecular target: human oxytocin receptor (human) (UniProt P30559); remark: listed apart in the source

Sequence of Oxytocin (P01178 whole entry, looked up): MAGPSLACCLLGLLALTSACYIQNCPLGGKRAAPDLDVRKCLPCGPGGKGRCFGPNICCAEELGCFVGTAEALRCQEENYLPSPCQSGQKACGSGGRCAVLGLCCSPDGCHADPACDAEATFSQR
Sequence of human oxytocin receptor (human) (P30559 whole entry): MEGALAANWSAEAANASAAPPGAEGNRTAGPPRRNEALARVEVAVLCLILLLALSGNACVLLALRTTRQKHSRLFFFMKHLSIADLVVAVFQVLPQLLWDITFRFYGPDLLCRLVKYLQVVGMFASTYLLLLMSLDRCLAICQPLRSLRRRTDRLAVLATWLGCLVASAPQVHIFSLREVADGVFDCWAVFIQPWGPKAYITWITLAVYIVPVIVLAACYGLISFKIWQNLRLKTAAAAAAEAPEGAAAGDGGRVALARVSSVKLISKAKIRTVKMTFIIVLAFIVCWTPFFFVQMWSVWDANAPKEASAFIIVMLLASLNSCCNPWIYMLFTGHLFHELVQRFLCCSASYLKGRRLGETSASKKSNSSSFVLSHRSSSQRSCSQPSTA
Sequence of human vasopressin V1a receptor (human) (P37288 whole entry): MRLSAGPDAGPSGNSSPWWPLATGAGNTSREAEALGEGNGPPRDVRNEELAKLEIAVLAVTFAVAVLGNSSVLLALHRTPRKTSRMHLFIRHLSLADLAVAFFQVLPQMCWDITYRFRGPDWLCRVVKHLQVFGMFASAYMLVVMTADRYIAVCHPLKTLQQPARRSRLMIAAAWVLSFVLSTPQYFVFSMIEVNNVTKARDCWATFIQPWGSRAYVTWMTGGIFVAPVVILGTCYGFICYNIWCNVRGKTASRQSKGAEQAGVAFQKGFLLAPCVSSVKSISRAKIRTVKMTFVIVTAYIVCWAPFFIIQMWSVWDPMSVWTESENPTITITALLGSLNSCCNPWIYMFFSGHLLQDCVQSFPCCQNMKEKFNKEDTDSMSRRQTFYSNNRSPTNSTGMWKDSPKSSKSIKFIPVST

Row | Substance | tissue bath, contraction amplitude of strips of pregnant human myometrium, EC50 [1] [nM] | maximal intracellular Ca2+ in human cardiomyocytes (FLIPR), EC50 [2] [nM] | FLIPR Ca2+ mobilization, Emax [3] [%]
1 | Oxytocin (from UniProt P01178 20-28) (peptide) | 1.14 | 174 | –
2 | d[Se-Se]-OT-OH (peptide) | – | – | 59

— PMC5892705
